Target: Hydroxynitrile lyase from Nedyopus tambanus tambanus (NttHNL) (Nedyopus tambanus tambanus)
Experiment: SEC; gel filtration of the purified native enzyme; Superdex 200 10/300 equilibrated with PBS; native 52400 Da against 28800 Da on SDS-PAGE

- stoichiometry N: 2
Substance: Hydroxynitrile lyase from Nedyopus tambanus tambanus (NttHNL) (enzyme)
